The source of these data is PMC6463701.

The target of one data set is Cys820 (UniProt position 843, PTSHTCFNVLL). Put plainly: chemical modification (stopped-flow kinetics, UV-vis). The conditions noted are these: 10 °C; 100 mM NaCl; 20 mM sodium acetate, 20 mM sodium phosphate, 20 mM Tris or 20 mM CAPSO (depending on pH); 1 mM EDTA; isolated C-lobe, free (no ubiquitin), reduced thiol, folded.
Data set [1] concerns the target fluorophore-labeled ubiquitin G76C (BODIPY TMR C5-maleimide). The data set can be described thus: fluorescence polarisation; 50 nM BODIPY TMR-labelled ubiquitin G76C, E6AP construct titrated (C-lobe 0-500 μM); room temperature; 20 mM HEPES pH 7.2, 200 mM NaCl, 1 mM TCEP, 0.01% Triton X-100; single-site binding model; apparent KD. Background: Fluorescence polarisation rises when a labelled molecule tumbles more slowly, as on binding a larger partner.

Sequence of E6AP HECT domain (residues 495-852), wild type (Q05086 518-875): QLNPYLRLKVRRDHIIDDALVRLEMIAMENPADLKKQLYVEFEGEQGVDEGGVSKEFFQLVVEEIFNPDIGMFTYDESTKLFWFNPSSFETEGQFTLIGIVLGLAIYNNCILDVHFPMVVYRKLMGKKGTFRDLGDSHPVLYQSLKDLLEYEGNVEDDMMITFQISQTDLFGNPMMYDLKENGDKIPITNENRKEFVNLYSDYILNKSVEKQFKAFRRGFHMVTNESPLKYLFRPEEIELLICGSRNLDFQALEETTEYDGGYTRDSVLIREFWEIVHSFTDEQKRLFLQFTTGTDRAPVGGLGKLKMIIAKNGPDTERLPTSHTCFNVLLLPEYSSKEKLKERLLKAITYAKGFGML
Sequence of E6AP N-lobe (isolated) (Q05086 518-875): as above
Sequence of E6AP C-lobe (residues 741-852) (Q05086 764-875): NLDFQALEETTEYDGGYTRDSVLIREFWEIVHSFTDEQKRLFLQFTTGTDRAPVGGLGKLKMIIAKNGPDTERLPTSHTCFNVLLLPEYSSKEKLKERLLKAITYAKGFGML

In the data set with Cys820, “E6AP (UBE3A) HECT domain C-lobe, Delta4 variant (Homo sapiens; del849-852)” had a pKa of 8.7 ± 0.1.
Turning to “E6AP (UBE3A) HECT domain C-lobe, wild type (Homo sapiens)”, the pKa with Cys820 is reported as 8.7 ± 0.1.
Regarding “E6AP C-lobe (residues 741-852) (from UniProt Q05086-2 741-852) (domain or fragment)”, the Kd in data set [1] came to 400 µM.
Still for that read-out and setting: the same measure for “E6AP HECT domain (residues 495-852), wild type (from UniProt Q05086-2 495-852) (domain or fragment)”: 83 µM; for “E6AP HECT domain F665D (from UniProt Q05086-2 495-852) (domain or fragment)”: 120 µM; for “E6AP HECT domain I564D/F583D (from UniProt Q05086-2 495-852) (domain or fragment)”: 110 µM.
For the substance “E6AP N-lobe (isolated) (from UniProt Q05086-2 495-852) (domain or fragment)”, the Kd in data set [1] was determined as 70 µM.

As a reminder, the pKa is the negative logarithm of the acid dissociation constant. A high value points to a weaker acid or stronger base.
